This note sets out measurements from publication PMC4803054 (Genes & Development, 2016).

Experiment in all cases: pull-down
Experiment [1] has as its target T1, Mte1 (GST tag cleaved off) (S. cerevisiae, UniProt P53227 1-271).
T1 sequence (looked up): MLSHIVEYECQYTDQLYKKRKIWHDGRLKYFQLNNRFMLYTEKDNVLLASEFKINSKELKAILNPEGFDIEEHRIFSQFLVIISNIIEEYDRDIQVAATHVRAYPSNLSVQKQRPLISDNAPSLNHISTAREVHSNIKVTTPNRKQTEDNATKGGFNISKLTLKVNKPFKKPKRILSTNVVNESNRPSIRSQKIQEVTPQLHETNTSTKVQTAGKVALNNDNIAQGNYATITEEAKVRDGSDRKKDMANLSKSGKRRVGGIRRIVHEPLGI

In a further experiment the target is MHF complex (Mhf1-Mhf2) (S. cerevisiae, UniProt Q3E835 1-90; Q3E829 1-80).
The next experiment deals with Mph1-MHF complex (S. cerevisiae, UniProt P40562 1-993; Q3E835 1-90; Q3E829 1-80).

B1: MBP-tagged Mph1(754–993) (domain or fragment, S. cerevisiae, UniProt P40562 754-993, looked up)
chain: SNENPSKKRKIFKALDNLENDSTEEASSSLETEDEEVSDDNNVFIAEGQNGCQKDLETAIIRTGESLTTLKPLHNFERPNMALFVNDCGLPTKIEKNVKDIRGNQHNLEKEKSCTVDKNNMVLSLDDWNFFRNRYIPEGVSFDVEPNFVQYTKGVKVPHCHKVSKIITLFNDESNDNKKRTIDMNYTKCLARGMLRDEKKFVKVNDKSQVDNNSVNHDSSQSFTLSNAELDDILGSDSDF
With B1, the binding result (in experiment [1]; in the experiment with MHF complex (Mhf1-Mhf2)) was “binds” each time.

B2: GST-Mte1 fragment 201-271 (domain or fragment)
chain: LHETNTSTKVQTAGKVALNNDNIAQGNYATITEEAKVRDGSDRKKDMANLSKSGKRRVGGIRRIVHEPLGI
For the molecule B2, the binding result with Mph1-MHF complex is listed as “binds”.
